Experimental data from patent publication US20070059320A1 (HOSPITAL FOR SICK CHILDREN, published 2007).
Ends that are not written are not given here.

B1: NADH dehydrogenase subunit 2 (ND2), native protein in brain lysates, PSD preparations, hippocampal neurons and tissues (other, UniProt P11662 1-346, looked up)
chain: MNPITLIIIYFTILMGPVITMSSSNLLLMWVGLEMSLLAIIPLLANKKSPRSTEAATKYFLTQATASMIILLVIILNYKQSGMWTLQQQTNNMLLNMMLISLAMKLGLAPFHYWLPEVTQGIPLHIGLILLTWQKIAPLSILYQFYQLLNPTITTILAISSVFVGAWGGLNQTQTRKIMAYSSIAHMGWMTAILPYNPNLTLLNLTIYILLTVPMFITLMTNSATTINTLSLAWNKTPMILTMTSIILLSLGGLPPLTGFLPKWAIISELLKNNCSTLSTLMAIMALLSLFFYTRLIYSMSLTMFPTNNNSKMISHHHQNPKHNFILPTLTVLSTLTLPLSSQLIT
B2: ND2.3-GST fusion protein (amino acids 1-188 of human ND2) (other)
chain: MNPLAQPVIYSTIFAGTLITALSSHWFFTWVGLEMNMLAFIPVLTKKMNPRSTEAAIKYFLTQATASMILLMAILFNNMLSGQWTMTNTTNQYSSLMIMMAMAMKLGMAPFHFWVPEVTQGTPLTSGLLLLTWQKLAPISIMYQISPSLNVSLLLTLSILSIMAGSWGGLNQTQLRKILAYSSITHMG
notes: not shown: glutathione S-transferase (GST) tag of vector pGEX4T-1
B3: ND2.2-GST fusion protein (amino acids 189-238 of human ND2) (other)
chain: WMMAVLPYNPNMTILNLTIYIILTTTAFLLLNLNSSTTTLLLSRTWNKLT
modifications: also: fused to GST tag of pGEX vector, sequence and linker not given here
notes: as for B2

Legend:
[1] = target: T1, GluR2, native protein in PSD preparations (rat, UniProt P19491 22-883, limits assumed); assay: co-immunoprecipitation from PSD preparations with anti-GluR2, probed with anti-ND2
T1 construct: also called AMPA receptor complex
T1 sequence (P19491 22-883 limits assumed): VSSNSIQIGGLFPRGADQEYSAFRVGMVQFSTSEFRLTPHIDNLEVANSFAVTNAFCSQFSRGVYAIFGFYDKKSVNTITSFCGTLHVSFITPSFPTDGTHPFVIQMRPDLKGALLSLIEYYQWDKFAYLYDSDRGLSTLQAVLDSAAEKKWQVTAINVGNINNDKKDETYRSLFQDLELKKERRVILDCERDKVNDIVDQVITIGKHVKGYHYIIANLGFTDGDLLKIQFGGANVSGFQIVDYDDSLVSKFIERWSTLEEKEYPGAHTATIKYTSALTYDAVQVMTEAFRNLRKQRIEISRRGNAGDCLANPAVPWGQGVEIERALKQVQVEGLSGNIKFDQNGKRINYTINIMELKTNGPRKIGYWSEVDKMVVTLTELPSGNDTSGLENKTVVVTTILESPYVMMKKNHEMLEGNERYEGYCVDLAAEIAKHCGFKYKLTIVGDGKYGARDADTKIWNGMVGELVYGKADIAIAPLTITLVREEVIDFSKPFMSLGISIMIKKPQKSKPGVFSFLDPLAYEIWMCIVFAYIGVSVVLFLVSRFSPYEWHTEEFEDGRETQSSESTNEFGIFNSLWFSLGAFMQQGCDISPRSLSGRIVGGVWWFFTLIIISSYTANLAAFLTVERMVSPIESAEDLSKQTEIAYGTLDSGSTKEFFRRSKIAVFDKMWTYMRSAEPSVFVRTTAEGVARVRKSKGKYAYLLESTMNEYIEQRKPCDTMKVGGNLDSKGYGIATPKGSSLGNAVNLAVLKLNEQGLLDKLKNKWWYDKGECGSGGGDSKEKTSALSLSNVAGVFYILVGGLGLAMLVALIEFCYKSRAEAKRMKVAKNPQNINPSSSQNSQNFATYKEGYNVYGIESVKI

[2] = target: T2, potassium channel Kv3.1, native protein in PSD preparations (rat, UniProt P25122 1-585); assay: co-immunoprecipitation from PSD preparations with anti-Kv3.1, probed with anti-ND2
T2 sequence (looked up): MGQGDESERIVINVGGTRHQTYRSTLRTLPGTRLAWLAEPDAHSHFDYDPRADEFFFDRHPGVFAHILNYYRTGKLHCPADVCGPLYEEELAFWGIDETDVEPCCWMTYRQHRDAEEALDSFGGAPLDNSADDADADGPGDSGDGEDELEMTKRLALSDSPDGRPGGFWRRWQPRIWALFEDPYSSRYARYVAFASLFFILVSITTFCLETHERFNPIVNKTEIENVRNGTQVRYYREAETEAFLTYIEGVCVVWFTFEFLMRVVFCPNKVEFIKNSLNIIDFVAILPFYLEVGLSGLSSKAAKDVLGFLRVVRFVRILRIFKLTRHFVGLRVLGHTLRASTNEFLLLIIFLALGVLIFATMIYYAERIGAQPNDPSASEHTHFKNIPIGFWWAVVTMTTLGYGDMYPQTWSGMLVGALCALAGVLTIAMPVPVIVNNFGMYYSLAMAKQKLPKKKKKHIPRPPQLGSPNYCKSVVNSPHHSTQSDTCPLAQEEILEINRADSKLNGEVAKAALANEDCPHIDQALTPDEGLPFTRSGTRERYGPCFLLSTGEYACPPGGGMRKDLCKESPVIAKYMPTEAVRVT

[3] = target: non-receptor tyrosine kinase Src, native protein in brain lysates, PSD preparations, hippocampal neurons and … (rat, UniProt Q9WUD9 2-536, limits assumed); assay: GST pull-down from PSD preparations, immunoblot
[4] = target: T3, recombinant Src unique domain (biotinylated probe) (murine (n-Src), UniProt P12931 5-83 (human entry), biotinylated); assay: blot of ND2-GST fusion proteins probed with biotinylated Src unique domain, streptavidin-HRP
T3 construct: also called unique domain of Src; Src unique domain protein; not shown: GST tag of vector pGEX2T'6; purified as GST fusion protein

Binder | binding result [1] | binding result [2] | binding result [3] | binding result [4]
B1 | no binding | no binding |  | 
B2 |  |  | no binding | 
B3 |  |  | no binding | no binding
